From patent US10428140B2, “Anti-EphA4 antibody” (EISAI R&D MANAGEMENT CO., LTD., priority 2015, dated 2019)
One block for each molecule: values may come before it.

Legend:
Test in all cases: Selectivity ELISA of humanized antibodies for human Eph receptor
Type in all cases: binding
Conditions in all cases: coated protein 1 nM
SEAP-His = SEAP-His (Homo sapiens, UniProt P05187)
Method in brief: (§1)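 Capture ELISA: anti-6-His coat, 1% BlockAce block, Eph ECD-SEAP-His (1 nM final, Expi293F supernatant) 1 h RT, humanized Ab 1 h RT, HRP anti-IgG 1 h RT, TMB, H2SO4 stop, A450.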

human EphA10 = molecular target: T1, human EphA10 (Homo sapiens, UniProt Q5JZY3)
T1 construct: a protein of the extracellular region of each human Eph receptor fused with the SEAP protein and the His tag; made in house; host or cells: Expi293F cells (culture supernatant)
T1 sequence (Q5JZY3 34-565 limits assumed): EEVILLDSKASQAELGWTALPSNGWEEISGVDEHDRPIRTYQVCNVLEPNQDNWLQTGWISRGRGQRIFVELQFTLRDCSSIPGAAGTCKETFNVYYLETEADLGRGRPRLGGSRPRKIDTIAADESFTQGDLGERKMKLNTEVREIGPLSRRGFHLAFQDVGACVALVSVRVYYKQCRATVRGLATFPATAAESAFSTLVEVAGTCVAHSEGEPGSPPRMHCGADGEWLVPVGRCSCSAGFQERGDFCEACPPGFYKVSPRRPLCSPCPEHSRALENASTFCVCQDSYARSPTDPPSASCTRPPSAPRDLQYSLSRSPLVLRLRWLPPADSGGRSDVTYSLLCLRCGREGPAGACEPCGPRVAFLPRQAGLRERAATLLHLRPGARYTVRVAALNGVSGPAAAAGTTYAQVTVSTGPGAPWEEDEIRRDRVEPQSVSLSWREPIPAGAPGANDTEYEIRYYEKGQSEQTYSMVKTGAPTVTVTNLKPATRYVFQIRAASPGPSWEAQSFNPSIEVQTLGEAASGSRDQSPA
Method in brief: as §1

human EphB3 = molecular target: T2, human EphB3 (Homo sapiens, UniProt P54753)
T2 construct: a protein of the extracellular region of each human Eph receptor fused with the SEAP protein and the His tag; made in house; host or cells: Expi293F cells
T2 sequence (P54753 34-559 limits assumed): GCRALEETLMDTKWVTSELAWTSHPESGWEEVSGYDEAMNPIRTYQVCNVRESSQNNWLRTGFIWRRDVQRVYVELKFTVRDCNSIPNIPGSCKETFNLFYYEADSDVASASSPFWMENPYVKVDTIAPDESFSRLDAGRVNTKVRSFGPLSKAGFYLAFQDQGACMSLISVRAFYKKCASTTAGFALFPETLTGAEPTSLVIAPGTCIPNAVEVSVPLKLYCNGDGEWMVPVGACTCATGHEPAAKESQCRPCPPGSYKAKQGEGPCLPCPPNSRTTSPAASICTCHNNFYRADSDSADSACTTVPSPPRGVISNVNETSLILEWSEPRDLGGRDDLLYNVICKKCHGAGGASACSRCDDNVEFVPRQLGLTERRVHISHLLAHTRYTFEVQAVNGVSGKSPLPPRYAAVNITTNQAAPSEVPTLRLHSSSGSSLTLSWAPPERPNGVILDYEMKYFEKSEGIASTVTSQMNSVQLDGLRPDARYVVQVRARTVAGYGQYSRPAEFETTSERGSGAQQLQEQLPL
Method in brief: as §1

Chain of SEAP-His (P05187 23-511 limits assumed): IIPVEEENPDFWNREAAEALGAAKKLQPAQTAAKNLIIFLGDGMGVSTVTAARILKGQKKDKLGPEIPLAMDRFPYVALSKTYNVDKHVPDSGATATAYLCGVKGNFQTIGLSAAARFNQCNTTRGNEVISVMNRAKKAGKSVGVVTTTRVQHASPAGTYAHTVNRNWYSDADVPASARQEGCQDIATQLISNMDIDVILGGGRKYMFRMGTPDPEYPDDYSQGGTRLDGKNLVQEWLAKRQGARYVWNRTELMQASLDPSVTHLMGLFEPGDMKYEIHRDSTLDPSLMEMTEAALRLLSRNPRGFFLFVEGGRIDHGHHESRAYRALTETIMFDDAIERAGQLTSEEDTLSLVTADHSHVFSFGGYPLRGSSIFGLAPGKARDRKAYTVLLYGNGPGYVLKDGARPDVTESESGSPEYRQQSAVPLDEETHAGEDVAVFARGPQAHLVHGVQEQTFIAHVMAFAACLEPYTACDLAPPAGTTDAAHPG

B2: 73 (antibody, V domains shown)
VH: QIQLVQSGSELKKPGASVKVSCKASGYTFTDYSMHWVRQAPGQGLKWMGWINTETGEPTYADDFKGRFVFSLDTSVSTAYLQISSLKAEDTAVYYCARIPLYYYGSRYWYFDVWGQGTTVTVSS
VL: EIVMTQSPATLSVSPGERATLSCRASENIYRNLAWYQQKPGQSPRLLIYAATNLADGIPARFSGSGSGTEYTLTISSLQSEDFAVYYCQHFWGTPWTFGQGTKVEIK
modifications: synthetic humanized antibody heavy chain variable region sequence; synthetic humanized antibody light chain variable region sequence
- SEAP-His: absorbance at 450 nm, percentage with respect to hEphA4-SEAP-His as 100% (SEAP-His): 5.8%
- hEphA10-SEAP-: absorbance at 450 nm, percentage with respect to hEphA4-SEAP-His as 100% (human EphA10): 5.6%
- hEphB3-SEAP-: absorbance at 450 nm, percentage with respect to hEphA4-SEAP-His as 100% (human EphB3): 5.8%

B3: 139 (antibody)
VH: QVQLVQSGSELKKPGASVKVSCKASGYTFTDYSMHWVRQAPGQGLEWMGWINTETGEPTYAQGFTGRFVFSLDTSVSTAYLQISSLKAEDTAVYYCARIPLYYYGSRYWYFDVWGQGTTVTVSS
VL: DIQMTQSPSSLSASVGDRVTITCRASENIYRNLAWYQQKPGKAPKLLVYAATNLADGVPSRFSGSGSGTDYTLTISSLQPEDFATYYCQHFWGTPWTFGQGTKVEIK
chain: ASTKGPSVFPLAPSSRSTSESTAALGCLVKDYFPEPVTVSWNSGALTSGVHTFPAVLQSSGLYSLSSVVTVPSSNFGTQTYTCNVDHKPSNTKVDKTVERKSCVECPPCPAPPAAAPSVFLFPPKPKDTLMISRTPEVTCVVVDVSHEDPEVQFNWYVDGVEVHNAKTKPREEQFNSTFRVVSVLTVVHQDWLNGKEYKCKVSNKGLPAPIEKTISKTKGQPREPQVYTLPPSREEMTKNQVSLTCLVKGFYPSDIAVEWESNGQPENNYKTTPPMLDSDGSFFLYSKLTVDKSRWQQGNVFSCSVMHEALHNHYTQKSLSLSPG
modifications: synthetic humanized antibody heavy chain variable region sequence; synthetic humanized antibody light chain variable region sequence; synthetic antibody constant region sequence
- SEAP-His: absorbance at 450 nm, percentage with respect to hEphA4-SEAP-His as 100% (SEAP-His): 5.7%
- hEphA10-SEAP-: absorbance at 450 nm, percentage with respect to hEphA4-SEAP-His as 100% (human EphA10): 5.5%
- hEphB3-SEAP-: absorbance at 450 nm, percentage with respect to hEphA4-SEAP-His as 100% (human EphB3): 5.6%

B4: 140 (antibody, V domains shown)
VH: QVQLVQSGSELKKPGASVKVSCKASGYTFTDYSMHWVRQAPGQGLKWMGWINTETGEPTYAQGFTGRFVFSLDTSVSTAYLQISSLKAEDTAVYYCARIPLYYYGSRYWYFDVWGQGTTVTVSS
VL: DIQMTQSPSSLSASVGDRVTITCRASENIYRNLAWYQQKPGKAPKLLVYAATNLADGVPSRFSGSGSGTDYTLTISSLQPEDFATYYCQHFWGTPWTFGQGTKVEIK
modifications: synthetic humanized antibody heavy chain variable region sequence; synthetic humanized antibody light chain variable region sequence
- SEAP-His: absorbance at 450 nm, percentage with respect to hEphA4-SEAP-His as 100% (SEAP-His): 5.4%
- hEphA10-SEAP-: absorbance at 450 nm, percentage with respect to hEphA4-SEAP-His as 100% (human EphA10): 5.2%
- hEphB3-SEAP-: absorbance at 450 nm, percentage with respect to hEphA4-SEAP-His as 100% (human EphB3): 5.4%

B5: 138 (antibody, V domains shown)
VH: QIQLVQSGSELKKPGASVKVSCKASGYTFTDYSMHWVRQAPGQGLKWMGWINTETGEPTYAQGFTGRFVFSLDTSVSTAYLQISSLKAEDTAVYYCARIPLYYYGSRYWYFDVWGQGTTVTVSS
VL: DIQMTQSPSSLSASVGDRVTITCRASENIYRNLAWYQQKPGKAPKLLVYAATNLADGVPSRFSGSGSGTDYTLTISSLQPEDFATYYCQHFWGTPWTFGQGTKVEIK
modifications: synthetic humanized antibody heavy chain variable region sequence; synthetic humanized antibody light chain variable region sequence
- SEAP-His: absorbance at 450 nm, percentage with respect to hEphA4-SEAP-His as 100% (SEAP-His): 5.1%
- hEphA10-SEAP-: absorbance at 450 nm, percentage with respect to hEphA4-SEAP-His as 100% (human EphA10): 5.0%
- hEphB3-SEAP-: absorbance at 450 nm, percentage with respect to hEphA4-SEAP-His as 100% (human EphB3): 5.1%

The remaining lines, values ahead:

- SEAP-His: absorbance at 450 nm, percentage with respect to hEphA4-SEAP-His as 100% (SEAP-His): 5.5%
- hEphA10-SEAP-: absorbance at 450 nm, percentage with respect to hEphA4-SEAP-His as 100% (human EphA10): 5.3%
- hEphB3-SEAP-: absorbance at 450 nm, percentage with respect to hEphA4-SEAP-His as 100% (human EphB3): 5.6%
B1: 96 (antibody, V domains shown)
VL: EIVMTQSPATLSVSPGERATLSCRASENIYRNLAWYQQKPGQSPRLLIYAATNLADGIPARFSGSGSGTEYTLTISSLQSEDFAVYYCQHFWGTPWTFGQGTKVEIK
VH: QVQLVQSGSELKKPGASVKVSCKASGYTFTDYSMHWVRQAPGQGLKWMGWINTETGEPTYADDFKGRFVFSLDTSVSTAYLQISSLKAEDTAVYYCARIPLYYYGSRYWYFDVWGQGTTVTVSS
modifications: constant regions without entry; synthetic humanized antibody light chain variable region sequence; synthetic humanized antibody heavy chain variable region sequence

- SEAP-His: absorbance at 450 nm, percentage with respect to hEphA4-SEAP-His as 100% (SEAP-His): 5.0%
- hEphA10-SEAP-: absorbance at 450 nm, percentage with respect to hEphA4-SEAP-His as 100% (human EphA10): 5.2%
- hEphB3-SEAP-: absorbance at 450 nm, percentage with respect to hEphA4-SEAP-His as 100% (human EphB3): 5.2%
B6: 141 (antibody, V domains shown)
VH: QVQLVQSGSELKKPGASVKVSCKASGYTFTDYSMHWVRQAPGQGLEWMGWINTETGEPTYADDFKGRFVFSLDTSVSTAYLQISSLKAEDTAVYYCARIPLYYYGSRYWYFDVWGQGTTVTVSS
VL: DIQMTQSPSSLSASVGDRVTITCRASENIYRNLAWYQQKPGKAPKLLVYAATNLADGVPSRFSGSGSGTDYTLTISSLQPEDFATYYCQHFWGTPWTFGQGTKVEIK
modifications: synthetic humanized antibody heavy chain variable region sequence; synthetic humanized antibody light chain variable region sequence

- SEAP-His: absorbance at 450 nm, percentage with respect to hEphA4-SEAP-His as 100% (SEAP-His): 5.8%
- hEphA10-SEAP-: absorbance at 450 nm, percentage with respect to hEphA4-SEAP-His as 100% (human EphA10): 5.4%
- hEphB3-SEAP-: absorbance at 450 nm, percentage with respect to hEphA4-SEAP-His as 100% (human EphB3): 5.6%
B7: 142 (antibody, V domains shown)
VH: QVQLVQSGSELKKPGASVKVSCKASGYTFTDYSMHWVRQAPGQGLKWMGWINTETGEPTYADDFKGRFVFSLDTSVSTAYLQISSLKAEDTAVYYCARIPLYYYGSRYWYFDVWGQGTTVTVSS
VL: DIQMTQSPSSLSASVGDRVTITCRASENIYRNLAWYQQKPGKAPKLLVYAATNLADGVPSRFSGSGSGTDYTLTISSLQPEDFATYYCQHFWGTPWTFGQGTKVEIK
modifications: synthetic humanized antibody heavy chain variable region sequence; synthetic humanized antibody light chain variable region sequence

- SEAP-His: absorbance at 450 nm, percentage with respect to hEphA4-SEAP-His as 100% (SEAP-His): 6.3%
- hEphA10-SEAP-: absorbance at 450 nm, percentage with respect to hEphA4-SEAP-His as 100% (human EphA10): 5.2%
- hEphB3-SEAP-: absorbance at 450 nm, percentage with respect to hEphA4-SEAP-His as 100% (human EphB3): 5.9%
B8: 143 (antibody, V domains shown)
VH: QIQLVQSGSELKKPGASVKVSCKASGYTFTDYSMHWVRQAPGQGLKWMGWINTETGEPTYADDFKGRFVFSLDTSVSTAYLQISSLKAEDTAVYYCARIPLYYYGSRYWYFDVWGQGTTVTVSS
VL: DIQMTQSPSSLSASVGDRVTITCRASENIYRNLAWYQQKPGKAPKLLVYAATNLADGVPSRFSGSGSGTDYTLTISSLQPEDFATYYCQHFWGTPWTFGQGTKVEIK
modifications: synthetic humanized antibody heavy chain variable region sequence; synthetic humanized antibody light chain variable region sequence

- SEAP-His: absorbance at 450 nm, percentage with respect to hEphA4-SEAP-His as 100% (SEAP-His): 5.4%
- hEphA10-SEAP-: absorbance at 450 nm, percentage with respect to hEphA4-SEAP-His as 100% (human EphA10): 5.8%
- hEphB3-SEAP-: absorbance at 450 nm, percentage with respect to hEphA4-SEAP-His as 100% (human EphB3): 6.0%
B9: 152 (antibody, V domains shown)
VH: QVQLVQSGSELKKPGASVKVSCKASGYTFTDYSMHWVRQAPGQGLEWMGWINTETGEPTYAQGFTGRFVFSLDTSVSTAYLQISSLKAEDTAVYYCARIPLYYYGSRYWYFDVWGQGTTVTVSS
VL: DIQMTQSPSSLSASVGDRVTITCRASENIYRNLAWYQQKPGKAPKLLLYAATNLADGVPSRFSGSGSGTDYTLTISSLQSEDFATYYCQHFWGTPWTFGQGTKVEIK
modifications: synthetic humanized antibody heavy chain variable region sequence; synthetic humanized antibody light chain variable region sequence
